A short description of the series: Naphthalene transformation reaction analysed by HPLC-PDA. It counts as biochemical. How it is done:
A) Products formed after 15 minutes of reaction stopped with 20 μL of HCl 37% (PaDa-I, black bars; JaWa, grey bars). […] C) and D) Monitoring of the reaction for 270 minutes (without adding HCl) for the PaDa-I (C) and JaWa (D) mutants.
The reactions were analysed by means of chromatography in reverse phase (HPLC). The equipment is composed by a tertiary pump (Varian-Agilent Technologies, USA) coupled to an autosampler (Merck Millipore, MA, USA); an ACE C18 PFP column was used for separation (pentafluorophenyl, 15 cm×4.6 cm) at 45° C. and detection was performed using a photodiode detector (PDA) (Varian-Agilent Technologies, USA). The mobile phase selected was 70% methanol and 30% ddH2O (in both cases with 0.1% of acetic acid) at a flow rate of 0.8 mL/min. The reaction was quantified at 268 nm (based on standard HPLCs). […] For long reaction times, the conditions used were those described earlier but without stopping the reaction with HCl. A sample of 10 μL was injected and analysed at different reaction times (from 1 to 270 minutes).

[1] abbreviates: 15 minutes of reaction stopped with HCl.
Where [2] appears, read: 15 minutes of reaction stopped with HCl, 6.6 nM enzyme, 1 mM naphthalene, 1 mM H2O2.

B1: JaWa: PaDa-I variant with added mutations G241D and R257K, SEQ ID NO: 24 (protein)
chain: MKYFPLFPTLVYAVGVVAFPDYASLAGLSQQELDAIIPTLEAREPGLPPGPLENSSAKLVNDEAHPWKPLRPGDIRGPCPGLNTLASHGYLPRNGVATPAQIINAVQEGFNFDNQAAIFATYAAHLVDGNLITDLLSIGRKTRLTGPDPPPPASVGGLNEHGTFEGDASMTRGDAFFGNNHDFNETLFEQLVDYSNRFGGGKYNLTVAGELRFKRIQDSIATNPNFSFVDFRFFTAYGETTFPANLFVDGRRDDGQLDMDAARSFFQFSRMPDDFFRAPSPRSDTGVEVVVQAHPMQPGKNVGKINSYTVDPTSSDFSTPCLMYEKFVNITVKSLYPNPTVQLRKALNTNLDFLFQGVAAGCTQVFPYGRD
B1: under setting [1], the “1,4-naphthoquinone (oxidation product) detected” value is given as “without detectable traces of 1,4-naphthoquinone” and the “increase in the production of 1-naphthol, more than PaDa-I” value is reported as 156%. In addition, under setting [2], the “regioselectivity, 1-naphthol” value is 92% and the “regioselectivity, 2-naphthol” value was 8%. The “time at which formation of the epoxide intermediary reached its maximum” value (270 minute reaction at pH 7.0) is approximately 40 min. Also, where the note is “270 minutes at pH 7.0 without stopping the reaction”, the “production of 1-naphthol” value is recorded as 0.32 mM. Where the note is “calculated using the production value of 1-naphthol after 270 minutes”, the “total turnover numbers (TTN), 1-naphthol” value is reported as ~50,000 μmoles of product/μmoles of en. Where the note is “long reaction times, 270 minutes at pH 7.0 without stopping the reaction”, the “regioselectivity against 1-naphthol” value is listed as 97%.
